Our source for the stoichiometry N values is paper PMC2196876.

The test addresses epitope-tagged full-length hVam6p (HA–hVam6p and Myc–hVam6p) (human). The test can be described thus: sucrose gradient sedimentation velocity with immunoprecipitation of fractions.

What is called stoichiometry N is the number of molecules, sites or subunits per partner or assembly. “epitope-tagged full-length hVam6p (HA–hVam6p and Myc–hVam6p) (natural protein)” yielded a stoichiometry N of 3.
